These results are taken from publication PMC4013717, “AFF4 binding to Tat-P-TEFb indirectly stimulates TAR recognition of super elongation complexes at the HIV promoter” (eLife, 2014).

In data set [1] the test system is Cyclin T1 (P-TEFb subunit);CDK9 (P-TEFb subunit);HIV-1 Tat;AFF4 32-67 (human;not given;HIV-1;not given). Kind of data set: EMSA.
The subject of data set [2] is Cyclin T1 (P-TEFb subunit);CDK9 (P-TEFb subunit);HIV-1 Tat;AFF4 2-98 (human;not given;HIV-1;not given). Kind of data set: EMSA. A general note: Mobility shift assays separate free from complexed probe on a gel.
The test system of data set [3] is Cyclin T1 (P-TEFb subunit);CDK9 (P-TEFb subunit);HIV-1 Tat;AFF4 2-73 (human;not given;HIV-1;not given). Nature of the data set: EMSA.
Data set [4] deals with Tat-P-TEFb complex (HIV-1 Tat 1–57, CDK9 1–330, cyclin T1 1–264) (HIV-1 | human) (UniProt P04608).
For the next data set, the target named is T1, human CDK9 1–330 (human, UniProt P50750 1-330).
T1 construct: human CDK9, residues 1-330
T1 sequence (P50750 1-330): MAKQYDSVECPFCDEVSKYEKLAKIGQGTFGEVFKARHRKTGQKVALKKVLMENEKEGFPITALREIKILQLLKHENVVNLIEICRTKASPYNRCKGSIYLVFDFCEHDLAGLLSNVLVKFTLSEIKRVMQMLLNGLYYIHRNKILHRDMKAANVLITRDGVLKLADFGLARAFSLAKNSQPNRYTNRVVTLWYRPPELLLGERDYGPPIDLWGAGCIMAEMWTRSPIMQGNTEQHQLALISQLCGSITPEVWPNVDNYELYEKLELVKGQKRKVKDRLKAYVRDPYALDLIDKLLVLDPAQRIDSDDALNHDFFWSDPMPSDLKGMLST
Kind of data set: crystal structure; quaternary complex of Tat 1–57, AFF4 2–73, CDK9 1–330 and CycT1 1–264; 3.0 Å; three complexes in the a.u.; crystals from 2.4 M sodium formate, 10 mM MgCl2 at 18°C. To be noted: both partners purified.

The next data set addresses T2, human cyclin T1 1–264 (human, UniProt O60563 1-264).
T2 construct: human cyclin T1, residues 1-264; also called CycT1
The description is as above. To be noted: both partners purified.

Data set [5] has as its target Tat-P-TEFb complex (HIV-1 Tat 1–57, CDK9 1–330, cyclin T1 1–264) (HIV-1 | human, UniProt P04608 1-57; P50750 1-330; O60563 1-264, N-terminally acetylated (N-acetyl group on M1)). Nature of the data set: cell-based or functional assay.

T2 sequence (O60563 1-264): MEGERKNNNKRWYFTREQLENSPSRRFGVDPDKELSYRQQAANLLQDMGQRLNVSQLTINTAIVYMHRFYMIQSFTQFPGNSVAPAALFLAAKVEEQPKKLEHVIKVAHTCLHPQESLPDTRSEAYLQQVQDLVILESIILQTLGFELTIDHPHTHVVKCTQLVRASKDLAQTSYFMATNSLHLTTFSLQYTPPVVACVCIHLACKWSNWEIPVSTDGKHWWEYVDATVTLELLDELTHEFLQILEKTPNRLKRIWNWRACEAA

TAR RNA (nucleotides 18-44): the K half in data set [1], in data set [2] and in data set [3] was 1.1 nM throughout.
On to SPLFAEPYKVTSKEDKLSSRIQSMLGNYDEMKDFIG (domain or fragment) [AFF4 fragment 32–67], for which the EMSA with 32P-labeled TAR RNA and Tat-P-TEFb in the presence of excess AFF4 32–67: increase of the affinity for TAR in data set [4] was determined as 30 fold.

B1: AFF4 fragment 2–98 (domain or fragment)
chain: NREDRNVLRMKERERRNQEIQQGEDAFPPSSPLFAEPYKVTSKEDKLSSRIQSMLGNYDEMKDFIGDRSIPKLVAIPKPTVPPSADEKSNPNFFEQR
Regarding B1, the EMSA with 32P-labeled TAR RNA and Tat-P-TEFb in the presence of excess AFF4 2–98: increase of the affinity for TAR in data set [4] came to 30 fold.

B2: AFF4 fragment 2–73 (domain or fragment, UniProt Q9UHB7 2-73, looked up)
chain: NREDRNVLRMKERERRNQEIQQGEDAFPPSSPLFAEPYKVTSKEDKLSSRIQSMLGNYDEMKDFIGDRSIPK
notes: AFF4 (SEC scaffold), residues 2-73; The His-tag is TEV-protease-cleavable; also called AFF4_(2–73); source: E. coli, purified
Regarding B2, the binding result with human CDK9 1–330 and in the data set with human cyclin T1 1–264 was “binds” throughout. For the same molecule, the “EMSA with 32P-labeled TAR RNA and Tat-P-TEFb in the presence of excess AFF4 2–73: increase of the affinity for TAR” value in data set [5] worked out at 30 fold.
